How the values were obtained:
[1] = target: T1, XBB.1.5 RBD (SARS-CoV-2 Omicron XBB.1.5 (GISAID …, E484A (prototypic numbering) | F490S (prototypic numbering))); assay: SPR; details: both partners purified
T1 construct: not shown: His tag, C-terminal, kept

[2] = target: T2, BA.1 RBD (SARS-CoV-2 Omicron BA.1 (GISAID …, strain)); assay: SPR; details: both partners purified
T2 construct: not shown: His tag, C-terminal, kept

B1: Nanosota-3C (VHH)
VHH: QVQLQESGGGLVQAGGSLRLSCAASGSIFSPNTMGWFRQALGKQREGVAFISSIASTSYWLPVKGRFTITRDNTKNTVHLQMNSLIPEDTAVYYCYAVDKSQDYWGQGTQVTVSS
Q: For B1, which Kd [1] is on record?
A: The Kd was 2.04 nM.

Q: And the Kd [2]?
A: The Kd was 27.3 nM.
